The data set deals with GST-LEDGF PWWP (UniProt O75475 1-100). The data set can be described thus: EMSA.
Sequence of GST-LEDGF PWWP (O75475 1-100): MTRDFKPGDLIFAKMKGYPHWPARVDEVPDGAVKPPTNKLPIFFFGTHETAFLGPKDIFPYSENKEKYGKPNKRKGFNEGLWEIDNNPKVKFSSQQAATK

B1: non-specific DNA 40 bp (dsDNA)
DNA 1: CTGCAGAAGCTTGGTGCCGGGGCCGCTCAATTGGTCGTAG
DNA 2: CTACGACCAATTGAGCGGCCCCGGCACCAAGCTTCTGCAG
In turn, B1 showed a Kd of about 1500 nM.

B2: SMYD1 DNA 40 bp (dsDNA)
DNA 1: CAGGCTGGTCTTGAACTCCTGACCTCAGATGATCCATGTG
DNA 2: CACATGGATCATCTGAGGTCAGGAGTTCAAGACCAGCCTG
For B2, the Kd was about 1500 nM.

The Kd is the concentration at which binding is half-saturated.

These data come from article PMC3616739.
